# Reference: the nanobody polyreactivity screen of Harvey et al. (2022)
# Experiment: yeast display, Sf9 membrane polyspecificity reagent, FACS + sequencing; frameworks hold sequencing errors
# How it was run: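 Synthetic nanobody libraries on Saccharomyces cerevisiae BJ5465 were galactose-induced for 36–48 hours, stained 1 hour at 4 °C with 10% biotinylated, detergent-solubilized Sf9 membrane reagent and enriched on streptavidin microbeads. FACS then separated cells into low and high (top ~1%) gates by anti-HA (expression) and streptavidin (reagent binding) fluorescence. Genes were colony-PCR amplified, MiSeq 2 × 250 sequenced and CDR-length filtered. A clone's polyreactivity label is that of its gate of origin.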
row,Sequence,polyreactivity (PSR sort gate)
1,QVQREESGGGLVQAGGSLRLSCPASGITFWGYVMGWYRQAPGKERELVAAISSSGGRTYYADSVKGRFTISRDNAKNTVYLQMNSMKPEDTAVYYCAARFLYANGDSVDYDYWGQGTQVTVSS,high polyreactivity
2,QVQRVESAAGLVQAGGSLRLSCAASGFIIVYYSMGWYRQAPGKERELVAAISRRGGSTYYADSVKGRFTISRDNAKNTVYLQMNSLKPEDTAVYYCNAVNVLAPSRGRRYDYWGQGTQVTVSS,high polyreactivity
3,QVQRVESAGGLVQAGVSLRLSCAASGITFASNTMGWYRQAPGKARELVAAITRGDNTYYADSVKGRFTISRDNAKNTVYLHMNSLKPEDTAVYYCATEGYEIQYEHDYWGEGTQVTVSS,low polyreactivity
4,QVQRVESAGRLVQAGGSLRLSCAPSGYTFYGYAMGWYRQAPGKESELVAAISGSGGSTYYADSVKGRFTMSRDNAKNTVYLQMNSLIPEDTAVYYCNKARYAIYRGDGYDYWGQGTEVTVSS,high polyreactivity
5,QVQRVESGGALVQAGGSLRLSCAASGSIIGINAMGWYRPAPGKERELVAAINGGGSTYYADSVKGRFTISRDNAKNTVYLQMHSLKPEDTAVYYCAAEWGTSWYDYRGQGTQVTVSS,low polyreactivity
6,QVQRVESGGGLFQAGGSLRLSCAASGSTFGYYAMGWYRQAPGKERELVPAISGSGTSTNYADSVKGRITISRDNAKNTVYLQMNSLKPEDTAVYYCATRYRYTGGGYYYRGQGTQVTVSS,low polyreactivity
7,QVQRVESGGGLVQAGGRLRLSCAASASTLYSYAMGWNRQAPGKEREFVATISQIGVRTYYADSVKGRFTISRDNAKNTVYLQMNSLKPEDTAVYYCAAGYRFTTYLVYNYWGQGTQVTVSS,high polyreactivity
8,QVQRVESGGGLVQAGGSHPLSCAASGITLRYYAMGWYRQAPGKERELVAAISGRGGGTYYADSVKGRFTISRDNAKNTVYLQMNSLKPEDTAVYYCNAVGQQQVEYEYWGQGTQVTVSS,high polyreactivity
9,QVQRVESGGGLVQAGGSHRLSCAASGSIFVVYTMGWYRPAPGKERELVAAITQNGGSSTYYADSVKGRFTISRDNAKNTVYLQMNSLKPEDTAVYYCNKDILSPVVRIFKYGYDMDYWGQGTQETVSS,low polyreactivity
10,QVQRVESGGGLVQAGGSLGLSCAASGFTFIKYAMGWYRQAPGKEREFVASITYRGGSTYYADSVKGRLTISRDNAKNTVYLQMNSLKPEDTAVYYCAAGGPGRRYRVDYWGQGTQVTVSS,high polyreactivity
11,QVQRVESGGGLVQAGGSLLLSCAPSGSIFSDNSMGWYRQAPGKERELVAAITSGGDTKYADSVKGRFTISRDNAKNTVYLQMNSLKPEDTAFYYCAAGIRYQASFDSWGQGTQVTVSS,low polyreactivity
12,QVQRVESGGGLVQAGGSLRISCAASGRTFRKYAMGWYRQARGKERELGAAMSWSGGSTYYANSVKGRFPISRDKPKNTVYLQMNSLKPEETAVYYCASDVDRFYTYKYDYWGQGTQVTVSS,low polyreactivity
13,QVQRVESGGGLVQAGGSLRLSCAASGFIISWYAMGWSRQAPGKERELVAAISSGGSTTYADSVKGRFTISRDNAKNTVSLQMNSLKPEDTAVYYCNADQVYGYNYWGQGTQVTVSS,high polyreactivity
14,QVQRVESGGGLVQAGGSLRLSCAASGFILNQYAMGWYRQAPGKASELVAAISNGGSTNYADSVKGRFTISRDNAKNTVYLQMNSLKPEDTAVYYCAKDQSLTYSSLWGYDYWGQGTQVTVSS,low polyreactivity
15,QVQRVESGGGLVQAGGSLRLSCAASGFTFTDYAMGWYRQAPGKERELVAAITIGGGRTYYADSVKGRFTISRDNAKNTVYLQMNSLKPEDTAVYYCNARYQVPYGYWGQGTQVTVSS,low polyreactivity
16,QVQRVESGGGLVQAGGSLRLSCAASGGIVSAYAMGWYRQAPGKEREFVASISRRGGSTYYADSVKGRFTISRDNAKNTVYFQMNSLKREDTAVSYCNARKYFEKSREYWGQGTQVTVSS,high polyreactivity
17,QVQRVESGGGLVQAGGSLRLSCAASGIFYWYGMGWYRQAPGKDRELVASITGGGRTYYADSVKGRFTISRDNAKNTVYLQMNSLKPEDTAVNYCATRYWGGLPRRWYDYWGQGTQVTVSS,high polyreactivity
18,QVQRVESGGGLVQAGGSLRLSCAASGIIFPHNAMGWYRQAPGKERELVATISRSGARTYYADSVKGRFTISRDNAKNTVYLQMNSLKPEDTAVYYCAVQRLVYVYGAYDYWGQGTQVTVSS,high polyreactivity
19,QVQRVESGGGLVQAGGSLRLSCAASGLTFPSYAMGWYRQAPGKERELVATISNGSSTYYADSVKGRFTISRDNAKNTVYLQLNSLKPEDTAVYYCAKDYYYSRNPLYGHDYWGQGSQVTVSS,low polyreactivity
20,QVQRVESGGGLVQAGGSLRLSCAASGRIFRGNAMGWYRQAPGKERELVAAITSSGDSTFYADSVKGRFTISRDNANNTVYLQMNSLKPEDTAVYYCNALVQGKEYYWGQGTQVTVSS,high polyreactivity
21,QVQRVESGGGLVQAGGSLRLSCAASGRTFGPNAMGCYRQSPGKERELVAAITSGGRTYYADSVKGRFTISRDNAKNTVYLQMNSLKPEDTAVYYCAASYRWRSSGKGKYDYWGQGTQVTVSS,high polyreactivity
22,QVQRVESGGGLVQAGGSLRLSCAASGRTFGYNAMGWYRQAPGKERELVAAISSSGGSTYYADSVKGRFTISRDNAKNTVYLQMNSLKPEDTAVYYCATQGYSWAHGSDYWGQGTQVTVSS,low polyreactivity
23,QVQRVESGGGLVQAGGSLRLSCAASGRTLRYKGLYRQAPGKERELVAAITTGVSTNYADSVKGRFTISRDNAKNTVYLQMNSLKPEDTAVYYCAARARGTVYQYYYWGQGTQVTVSS,high polyreactivity
24,QVQRVESGGGLVQAGGSLRLSCAASGSIFEGYAMGWYRQAPGKQRELVARITSDDDSTYYADSVKGRFTISRDNAKFSVYLQMNSLIPEDTAVYYCNADYYWTSLAMDSWGQGTQVTVCS,low polyreactivity
25,QVQRVESGGGLVQAGGSLRLSCAASGSIFVFYAMGWYRQAPGKERELVATISSVGRTNYADSVKGRFTISRDNAKNTVYLQMNSLKPEDTAVYYCAARRFRGSYYWGQGTQVTVSS,high polyreactivity
26,QVQRVESGGGLVQAGGSLRLSCAASGSIFWRNAMGWSRQAPGKERELVAAITSGGSTDYADSVKGGFRISRDTAKNTVYLQIHSLKPEDPAVYYCAAVTWSGWDGYYYWGQGTQVTVSS,low polyreactivity
27,QVQRVESGGGLVQAGGSLRLSCAASGSIYRWNARGWSRQATGKERELVAVINSSGGSTYYADSVKGRFTISRDNAKNTVYLQMNSLKPEDTAVYYCAADLFLECSSQYAPNWWPDGWNTYRLLGGYWGQGTQVTVSS,low polyreactivity
28,QVQRVESGGGLVQAGGSLRLSCAASGSTFARYAMGWYRQAPGKEREFVAAITYSGGRTYYADTVKGRFTISRDNAKNTVYLQMNSLKPEDTAVYYCAARRRYRYDYWGQGTQVTVSS,high polyreactivity
29,QVQRVESGGGLVQAGGSLRLSCAASGSTFDRNAMGWYRQAPGKERELVAAIDYSGGSTYYADSVKGRFTISRDNAKNTVYLQMNSLKPEDTAVYYCAARVDGPDYSDGNYWGQGSQVTVSS,low polyreactivity
30,QVQRVESGGGLVQAGGSLRLSCAASGSTFEYYAMGWYRQAPGKERELVAAISGGGSTNYADSVKGRFTISRDNAKNTVYLQMNSLTPEVTAVYYCNASDVGSRTSNYWGQGTQVTVSS,low polyreactivity
